Tests used:
Assay in all cases: anti-FLAG co-IP from lysate of N-FLAG B3GNT2 cells, mass spectrometry
NTPCR = target: T1, NTPCR (human, UniProt Q9BSD7 2-190)
T1 construct: also called NP_001316381.1 (+2)
T1 sequence (looked up): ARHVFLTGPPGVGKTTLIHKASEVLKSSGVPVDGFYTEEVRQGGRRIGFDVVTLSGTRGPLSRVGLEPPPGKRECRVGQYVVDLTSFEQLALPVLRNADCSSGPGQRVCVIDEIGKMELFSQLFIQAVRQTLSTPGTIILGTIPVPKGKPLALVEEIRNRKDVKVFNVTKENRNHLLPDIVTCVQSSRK

UBTF = target: T2, UBTF (human, UniProt P17480-2 1-727, limits assumed)
T2 construct: also called NP_001070151.1 (+3)
T2 sequence (looked up): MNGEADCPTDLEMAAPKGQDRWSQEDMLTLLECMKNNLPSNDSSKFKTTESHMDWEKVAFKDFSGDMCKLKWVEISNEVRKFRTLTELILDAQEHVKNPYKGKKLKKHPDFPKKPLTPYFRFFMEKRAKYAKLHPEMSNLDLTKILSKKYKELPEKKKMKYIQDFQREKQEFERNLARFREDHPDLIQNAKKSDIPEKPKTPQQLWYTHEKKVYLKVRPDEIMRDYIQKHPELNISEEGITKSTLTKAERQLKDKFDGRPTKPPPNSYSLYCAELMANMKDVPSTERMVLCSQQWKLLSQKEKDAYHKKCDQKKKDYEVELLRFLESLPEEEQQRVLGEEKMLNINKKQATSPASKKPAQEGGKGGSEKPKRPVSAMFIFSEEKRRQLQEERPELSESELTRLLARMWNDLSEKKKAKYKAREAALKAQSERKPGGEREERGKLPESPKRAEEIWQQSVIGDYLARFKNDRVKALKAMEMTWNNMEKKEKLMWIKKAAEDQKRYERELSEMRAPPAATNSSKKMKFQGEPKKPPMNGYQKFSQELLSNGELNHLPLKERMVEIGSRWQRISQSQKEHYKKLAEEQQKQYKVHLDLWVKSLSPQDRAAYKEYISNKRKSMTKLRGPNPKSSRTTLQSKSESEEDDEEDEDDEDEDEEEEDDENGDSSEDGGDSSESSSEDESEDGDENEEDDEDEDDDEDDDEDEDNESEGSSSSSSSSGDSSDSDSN

RPL34 = RPL34 (human, UniProt P49207 2-117)
TECR = target: T3, TECR (human, UniProt Q9NZ01 1-308)
T3 construct: also called NP_612510.1 (+2)
T3 sequence (looked up): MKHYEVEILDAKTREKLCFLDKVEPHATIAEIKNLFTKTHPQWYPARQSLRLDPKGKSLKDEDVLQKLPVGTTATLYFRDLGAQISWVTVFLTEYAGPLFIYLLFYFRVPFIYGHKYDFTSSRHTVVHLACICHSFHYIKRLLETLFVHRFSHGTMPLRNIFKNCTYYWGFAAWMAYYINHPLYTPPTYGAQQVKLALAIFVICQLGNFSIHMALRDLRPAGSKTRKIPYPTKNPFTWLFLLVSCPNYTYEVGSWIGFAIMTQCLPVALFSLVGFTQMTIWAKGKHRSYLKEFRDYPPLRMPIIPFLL

TRAFD1 = target: T4, TRAFD1 (human, UniProt O14545 2-582)
T4 construct: also called NP_006691.1
T4 sequence (looked up): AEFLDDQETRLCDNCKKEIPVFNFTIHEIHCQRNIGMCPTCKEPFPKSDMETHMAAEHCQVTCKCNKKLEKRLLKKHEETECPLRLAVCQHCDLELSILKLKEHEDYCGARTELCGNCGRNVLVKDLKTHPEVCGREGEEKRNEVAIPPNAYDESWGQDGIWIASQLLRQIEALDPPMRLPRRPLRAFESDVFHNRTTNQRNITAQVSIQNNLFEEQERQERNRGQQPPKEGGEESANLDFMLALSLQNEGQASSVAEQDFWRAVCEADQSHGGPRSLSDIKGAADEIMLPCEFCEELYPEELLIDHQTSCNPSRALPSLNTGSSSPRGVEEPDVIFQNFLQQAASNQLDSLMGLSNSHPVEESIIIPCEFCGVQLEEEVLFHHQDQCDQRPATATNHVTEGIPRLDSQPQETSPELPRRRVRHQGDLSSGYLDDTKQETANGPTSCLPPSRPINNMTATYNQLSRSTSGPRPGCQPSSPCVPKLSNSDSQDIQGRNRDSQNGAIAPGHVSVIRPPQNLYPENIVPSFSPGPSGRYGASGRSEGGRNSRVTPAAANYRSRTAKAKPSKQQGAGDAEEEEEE

Measured: co-IP mass spectrometry count

B1: N-terminal FLAG tagged B3GNT2 (enzyme, human, UniProt Q9NY97 1-397, looked up)
chain: MSVGRRRIKLLGILMMANVFIYFIMEVSKSSSQEKNGKGEVIIPKEKFWKISTPPEAYWNREQEKLNRQYNPILSMLTNQTGEAGRLSNISHLNYCEPDLRVTSVVTGFNNLPDRFKDFLLYLRCRNYSLLIDQPDKCAKKPFLLLAIKSLTPHFARRQAIRESWGQESNAGNQTVVRVFLLGQTPPEDNHPDLSDMLKFESEKHQDILMWNYRDTFFNLSLKEVLFLRWVSTSCPDTEFVFKGDDDVFVNTHHILNYLNSLSKTKAKDLFIGDVIHNAGPHRDKKLKYYIPEVVYSGLYPPYAGGGGFLYSGHLALRLYHITDQVHLYPIDDVYTGMCLQKLGLVPEKHKGFRTFDIEEKNKNNICSYVDLMLVHSRKPQEMIDIWSQLQSAHLKC
notes: Bait of the co-IP; pulled down from cell lysate with mouse anti-FLAG antibody; also called N-FLAG B3GNT2; N-term FLAG; not shown: N-terminal FLAG tag
0: all assays above

From patent US20240261333A1 (published 2024)
